Results from article PMC3792407, “Overexpression of chloroplast NADPH-dependent thioredoxin reductase in Arabidopsis enhances leaf growth and elucidates in vivo function of reductase and thioredoxin domains” (Frontiers in Plant Science, 2013).

B1: NADPH-dependent thioredoxin reductase C (NTRC), endogenous in wild-type Arabidopsis leaves (enzyme, UniProt O22229 68-529, looked up)
chain: ATANSPSSSSSGGEIIENVVIIGSGPAGYTAAIYAARANLKPVVFEGYQMGGVPGGQLMTTTEVENFPGFPDGITGPDLMEKMRKQAERWGAELYPEDVESLSVTTAPFTVQTSERKVKCHSIIYATGATARRLRLPREEEFWSRGISACAICDGASPLFKGQVLAVVGGGDTATEEALYLTKYARHVHLLVRRDQLRASKAMQDRVINNPNITVHYNTETVDVLSNTKGQMSGILLRRLDTGEETELEAKGLFYGIGHSPNSQLLEGQVELDSSGYVLVREGTSNTSVEGVFAAGDVQDHEWRQAVTAAGSGCIAALSAERYLTSNNLLVEFHQPQTEEAKKEFTQRDVQEKFDITLTKHKGQYALRKLYHESPRVILVLYTSPTCGPCRTLKPILNKVVDEYNHDVHFVEIDIEEDQEIAEAAGIMGTPCVQFFKNKEMLRTISGVKMKKEYREFIEANK
notes: NTRC of Arabidopsis thaliana (At2g41680), mature chloroplast protein without the putative transit peptide of 67 amino acids (ChloroP); calculated mass of mature NTRC 50890 Da, band of about 50 kDa; printed residue numbers count on the precursor with the transit peptide; The cleavage site of the transit peptide is only a ChloroP prediction (67 amino acids); also called plastid-localized …
B2: full-length NTRC with C217S/C220S in the NTRd active site (OE-SAIS) (enzyme, Arabidopsis thaliana, UniProt O22229 68-529, looked up)
chain: ATANSPSSSSSGGEIIENVVIIGSGPAGYTAAIYAARANLKPVVFEGYQMGGVPGGQLMTTTEVENFPGFPDGITGPDLMEKMRKQAERWGAELYPEDVESLSVTTAPFTVQTSERKVKCHSIIYATGATARRLRLPREEEFWSRGISASAISDGASPLFKGQVLAVVGGGDTATEEALYLTKYARHVHLLVRRDQLRASKAMQDRVINNPNITVHYNTETVDVLSNTKGQMSGILLRRLDTGEETELEAKGLFYGIGHSPNSQLLEGQVELDSSGYVLVREGTSNTSVEGVFAAGDVQDHEWRQAVTAAGSGCIAALSAERYLTSNNLLVEFHQPQTEEAKKEFTQRDVQEKFDITLTKHKGQYALRKLYHESPRVILVLYTSPTCGPCRTLKPILNKVVDEYNHDVHFVEIDIEEDQEIAEAAGIMGTPCVQFFKNKEMLRTISGVKMKKEYREFIEANK
notes: signal peptide in the construct (chloroplast transit peptide, putative 67 amino acids, ChloroP); full-length NTRC of Arabidopsis thaliana (At2g41680) with both redox cysteines of the NTRd motif CAIC changed to serine; in the leaf extract it runs as the mature protein of about 50 kDa; source: transgenic Arabidopsis (ntrc knockout background, CaMV 35S promoter, pGWR8), soluble leaf extract
B3: full-length NTRC with C454S/C457S in the TRXd active site (OE-SGPS) (enzyme, Arabidopsis thaliana, UniProt O22229 68-529, looked up)
chain: ATANSPSSSSSGGEIIENVVIIGSGPAGYTAAIYAARANLKPVVFEGYQMGGVPGGQLMTTTEVENFPGFPDGITGPDLMEKMRKQAERWGAELYPEDVESLSVTTAPFTVQTSERKVKCHSIIYATGATARRLRLPREEEFWSRGISACAICDGASPLFKGQVLAVVGGGDTATEEALYLTKYARHVHLLVRRDQLRASKAMQDRVINNPNITVHYNTETVDVLSNTKGQMSGILLRRLDTGEETELEAKGLFYGIGHSPNSQLLEGQVELDSSGYVLVREGTSNTSVEGVFAAGDVQDHEWRQAVTAAGSGCIAALSAERYLTSNNLLVEFHQPQTEEAKKEFTQRDVQEKFDITLTKHKGQYALRKLYHESPRVILVLYTSPTSGPSRTLKPILNKVVDEYNHDVHFVEIDIEEDQEIAEAAGIMGTPCVQFFKNKEMLRTISGVKMKKEYREFIEANK
notes: signal peptide in the construct (chloroplast transit peptide, putative 67 amino acids, ChloroP); full-length NTRC of Arabidopsis thaliana (At2g41680) with both redox cysteines of the TRXd motif CGPC changed to serine; in the leaf extract it runs as the mature protein of about 50 kDa; also called NTRC-SGPS; source: transgenic Arabidopsis (ntrc knockout background, CaMV 35S promoter, pGWR8), …

Target: the molecule itself
Test: SDS-PAGE of unheated samples with Western blot; soluble leaf proteins extracted in 50 mM HEPES, 5 mM NaCl, 10 mM MgCl2 with or without 2 mM DTT; solubilised in SDS buffer with or without mercaptoethanol and kept on ice (0°C), not heated; 10% acrylamide gel; blot with anti-NTRC or anti-NTRB antibody

Protein	stoichiometry N
B1	2
B2	2
B3	2
